The values below come from patent US20050170334A1.

In the assay the target is M2 peptide (extracellular 23-amino-acid M2 peptide) (influenza A virus). The assay is described as follows: ELISA, peptide coated, antibody 10 µg/ml.

The substance mouse anti-M2 antibody 14C2 displayed an ELISA (OD450) of 1.97 OD450.
